{
  "source": "patent US20130189255A1",
  "about": "“FUSIONS AND CONJUGATES OF INSULINOTROPIC AGENTS” (GLAXO GROUP LIMITED, priority 2008, published 2013)",
  "key": {"[1]": {"conditions": "mouse, in vivo, 1 mg/kg", "description": "This was followed by ion exchange chromotography on a Resource S column using a 0-1M salt gradient in 20 mM acetate pH5.0. Fractions containing the desired protein were then combined and buffer exchanged into 100 mM NaCl, 20 mM citrate pH6.2. Protein was filter sterilised, buffer exchanged and endotoxin removed ant tested prior to use in vivo. […] At predose, 0.25, 0.5, 1, 4, 7, 12, 24, 36, 48 and 60 hours after dosing for the iv doses and predose, 0.5, 1, 4, 7, 12, 24, 36, 48 and 60 hours after dosing for the sc doses blood samples were collected by terminal bleed and plasma prepared. Plasma samples were frozen and later defrosted for analysis of DAT0115, DAT0116 or DAT0117 levels as appropriate by solid phase extraction and LC/MS/MS to detect the presence of a fragment of the protein (from the exendin-4 section of the protein). Calculated plasma levels were then used to fit pharmacokinetic parameters using WinNonLin software. Half life after subcutaneous and intravenous administration and bioavailability is outlined in the table below. It was concluded from the results (see table 7 below) that all three compounds show desirable pharmacokinetic parameters in a mouse model of type II diabetes."}, "[2]": {"experiment": "In solution state by SEC MALLS", "assay_type": "physicochemical", "conditions": "Superdex 200, 20 mM citrate, 0.1M NaCl", "description": "The aim of this experiment was to determine the in solution state of DAT0115, DAT0117 and DAT0120 by SEC MALLS. Samples were purified and dialysed into appropriate buffer (PBS) and filtered after dialysis, concentration was determined and adjusted to 1 mg/ml. BSA and HSA were purchased from Sigma and used without further purification. Shimadzu LC-20AD Prominence HPLC system with an autosampler (SIL-20A) and SPD-20A Prominence UV/Vis detector was connected to Wyatt Mini Dawn Treos (MALLS, multi-angle laser light scattering detector) and Wyatt Optilab rEX DRI (differential refractive index) detector. The detectors were connected in the following order—LS—UV—RI. Both RI and LS instruments operated at a wavelength of 488 nm. […] The traces are then analysed using ASTRA software, and the signals are normalised aligned and corrected for band broadening following manufacturer's instructions. […] The dilution that takes place on the column is about 10 fold, so the concentration at which in-solution state is determined is 100 ug/ml, or about 8 uM dAb. […] 16, 1093-1099 (1948)]: The calculations were performed automatically by ASTRA software, resulting in a plot with molar mass determined for eath of the slices [Astra manual]. […]"}},
  "note": "“Also recorded” adds a separate entry of the source.",
  "data": [
    {"substance": "Exendin 4 (G4S linker)3 DOM7h-14 dAb fusion [DAT0115]", "values": [
      {"measurement": "Bioavailability", "setting": "[1]", "result": 65, "unit": "%"},
      {"measurement": "Half-life after intravenous administration", "setting": "[1]; iv", "result": 13.8},
      {"measurement": "Half-life after subcutaneous administration", "setting": "[1]; sc", "result": 18.6},
      {"measurement": "in-solution state (self association)", "setting": "[2]; pH6.2", "result": "eluted in a single peak; also recorded: significantly less (and possibly no) self association"},
      {"measurement": "Mw determined across the peak (SEC MALLS)", "setting": "[2]; pH6.2, 0.5 ml/min, expected monomer 16.9 kDa", "result": 17.4, "unit": "kDa"}
    ]}
  ]
}
